Residue numbers refer to the chain shown, from its start.
Legend:
Assay in all cases: MST; His-tagged DHS variants labelled with RED-tris-NTA 2nd Generation, 8.32 nM; eIF5A titrated, sixteen dilutions 0.00175–57.5 μM; 50 mM Tris, 200 mM NaCl, 5 mM β-ME pH 8; Monolith NT.115, 40% excitation power, 60% MST power; no NAD or SPD
Conditions in all cases: both partners purified
[1] = molecular target: T1, deoxyhypusine synthase I271A, His-tagged (human, UniProt P49366 1-369, I271A, RED-tris-NTA 2nd Generation dye on the His tag)
T1 construct: human deoxyhypusine synthase, Uniprot P49366, residues 1-369, site-directed mutant of the pET24d full-length construct; also called DHS I271A; source: E. coli, purified; not shown: 6xHis, N-terminal, kept
T1 sequence (looked up): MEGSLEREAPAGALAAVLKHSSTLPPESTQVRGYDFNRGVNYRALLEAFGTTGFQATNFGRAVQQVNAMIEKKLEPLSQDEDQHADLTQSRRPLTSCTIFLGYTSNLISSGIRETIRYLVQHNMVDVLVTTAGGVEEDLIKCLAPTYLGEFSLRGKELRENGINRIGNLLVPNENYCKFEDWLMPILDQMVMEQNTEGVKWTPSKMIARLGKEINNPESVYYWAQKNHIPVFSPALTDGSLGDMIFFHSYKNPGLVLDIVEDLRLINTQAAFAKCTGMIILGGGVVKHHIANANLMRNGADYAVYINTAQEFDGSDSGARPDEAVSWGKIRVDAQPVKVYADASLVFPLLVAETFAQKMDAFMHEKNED

[2] = molecular target: T2, deoxyhypusine synthase E137A, His-tagged (human, UniProt P49366 1-369, E137A, RED-tris-NTA 2nd Generation dye on the His tag)
T2 construct: human deoxyhypusine synthase, Uniprot P49366, residues 1-369, site-directed mutant of the pET24d full-length construct; also called DHS E137A; source: E. coli, purified; not shown: 6xHis, N-terminal, kept
T2 sequence (looked up): T1 sequence (looked up) with E137A, A271I

[3] = molecular target: T3, deoxyhypusine synthase N173A, His-tagged (human, UniProt P49366 1-369, N173A, RED-tris-NTA 2nd Generation dye on the His tag)
T3 construct: human deoxyhypusine synthase, Uniprot P49366, residues 1-369, site-directed mutant of the pET24d full-length construct; also called DHS N173A; source: E. coli, purified; not shown: 6xHis, N-terminal, kept
T3 sequence (looked up): T1 sequence (looked up) with N173A, A271I

[4] = molecular target: T4, deoxyhypusine synthase Y176A, His-tagged (human, UniProt P49366 1-369, Y176A, RED-tris-NTA 2nd Generation dye on the His tag)
T4 construct: human deoxyhypusine synthase, Uniprot P49366, residues 1-369, site-directed mutant of the pET24d full-length construct; also called DHS Y176A; source: E. coli, purified; not shown: 6xHis, N-terminal, kept
T4 sequence (looked up): T1 sequence (looked up) with Y176A, A271I

B1: eukaryotic translation factor 5A (eIF5A-1), residues 15-151 (domain or fragment)
chain: not shown
notes: human eIF5A1, residues 15-151, from pET28-MHL (Addgene); The purification protocol removes the tag with TEV; source: E. coli, purified (HisTrap, TEV cleavage, reverse HisTrap, SEC); not shown: His tag, N-terminal, cleaved
B1 gave a Kd [1] of 0.056 ± 0.016 µM, a Kd [2] of 2.55 ± 0.88 µM and a Kd [3] greater than 5 µM. It also gave a Kd [4] of 1.09 ± 0.548 µM.

Reference: article PMC10042821, “Cryo-EM structure of human eIF5A-DHS complex reveals the molecular basis of hypusination-associated neurodegenerative disorders” (Nature Communications, 2023)
